Assay results from patent publication US12583908B2, “Albumin protein variants, production thereof and uses of same” (Yeda Research and Development Co. Ltd., priority 2022, dated 2026).
Entries after “also recorded” stand apart in the source; their conditions may differ.

B1: HSA3: most highly mutated human albumin variant, 73 mutations all over the protein (Table 2) (protein)
chain: MDAHKSEVAHRFKDLGEENFKALVLIAFAQYLQKCPFEELVKMVKEVTEFAKKCVADETAENCDKSLHTLFGDKLCQVATLRETYGEMADCCAKQDPERHECFLQHKDDNPNLPRLERPEVDVMCKAFHDNEETFLNKYLYEIARRHPYFYAPELLYFAKRYKKAFTECCQAEDKAACLLPKLDALREEGKESSAKQRYKCAILQKFGERVFKAWAIARLSQRFPKAPFEEISKLVTDLTKVHKACCHGDMLECMDDRAKLAKYICENQDSISSKLKECCEKPLLERSHCIAEVENDDKPEDLPPLAADFVESKDVCKNYAEAKDVFLARFLYEYARRHPDYSVTLLLRIAKTYEDTLEKCCKAEDPHECYAKVEEEFKKLVEETQNLIKQNCELFEKLGEYYFQNALLIRYTKKMPQVPTDTLVELTRNLGKVGSKCCKLPEEKRLPCIEDYLSIVLNQLCVLHEKTPVNDRVTKCCTESLVNRRHCFSALEVDETYVPKEFNAETFTFHADLCTLSEEERQIMKQKFLVELVKHKPKATEEQLKAVMDDFTAFVEKCCKAEDPETCFAEEGSKLIAASQAALGL
modifications: Albumin Synthetic variant
B2: HSA1: human serum albumin variant with 16 mutations, no surface and no binding site mutations (Table 2) (protein)
chain: MDAHKSEVAHRFKDLGEENFKALVLIAFAQYLQQCPFEDLVKMVNEVTEFAKTCVADESAENCDKSLHTLFGDKLCTVATLRETYGEMADCCAKQEPERNECFLQHKDDNPNLPRLVRPEPDVMCTAFHDNEETFLKKYLYEIARRHPYFYAPELLYFAKRYKAAFTECCQAADKAACLLPKLDELREEGKASSAKQRHKCAILQKFGERAFKAWAVARLSQRFPKAEFAEVSKLVTDLTKVHTECCHGDLLECADDRADLAKYICENQDSISSKLKECCEKPLLEKSHCIAEVENDEMPADLPSLAADFIESKDVCKNYAEAKDVFLGMFLYEYARRHPDYSVVLLLRLAKTYETTLEKCCAAADPHECYSKVFDEFKPLIEEPQNLIKQNCELFEQLGEYKFQNALLIRYTKKVPQVSTPTLVEVARNLGKVGSKCCKHPEAKRMPCAEDYLSIVLNQLCVLHEKTPVSDRVTKCCTESLVNRRPCFSALEVDETYVPKEFNAETFTFHADICTLSEEERQIKKQTALVELVKHKPKATKEQLKAVMDDFSAFVEKCCKADDKETCFAEEGKKLIAASQAALGL
modifications: Albumin Synthetic variant

Key:
NcoI and XhoI enzymes = experiment: DNA restriction of pET29b with NcoI and XhoI in albumin-containing buffer; type: biochemical; conditions: 0.1 mg/ml albumin, overnight at 37° C.
Protocol: DNA Restriction. pET29b vector with 900 bp insert was restricted with NcoI and XhoI enzymes (NEB) overnight at 37° C., using the following buffers: rCutsmart buffer (NEB, contains 0.1 mg/ml rBSA), buffer 4 (NEB, identical composition to rCutsmart buffer, but no BSA), and buffer 4 supplemented with HSA1, BSA2, and HSA3 variants (tagless, after gel filtration and ion exchange purification) at 0.1 mg/ml.

[1] = Thermal stability by nanoDSF; type: physicochemical; conditions: His-tagged variants and commercial WT; 20 to 95° C. at 1° C./min
Protocol: (§1) Thermal stability measurements. Thermal stability of BSA and HSA variants (His-tagged form) and of commercial WT HSA and BSA (Sigma-Aldrich A1653 and A7638, respectively) was measured by nanoscale differential scanning fluorimetry (nanoDSF), in Prometheus NT.48 instrument (NanoTemper). The temperature was increased from 20° C. to 95° C. at 1° C./min ramp. Thermal stability of HSA variants was also measured by differential scanning calorimetry (DCS) in VP-DSC instrument (Malvern), with heating from 20° C. to 95° C. at 1° C./min and cooling at the same rate.

HEK293T cells = experiment: HEK293T cell culture with albumin variants; type: cell-based, human; conditions: 1 mg/ml albumin, medium with 5% FBS, 5 days
Protocol: HEK293T adherent cells were grown in DMEM supplemented with GlutaMAX, NEAA and 5% FBS (all from Gibco) at 37° C., 5% CO2. To test the viability of the cultured cells in the presence of PROSS BSA2, HSA1 and HSA3 in comparison to the commercial BSA or HSA, respectively, cells (˜3×10^3) were seeded in 24-well plate and followed each day for 5 days. All the albumin variants were added to the cells at 1 mg/ml in duplicates, and their effect was analyzed. As a control, no protein was added to the growth medium. In each time point, cells were collected and the number of total cells, live cells and % of viable cells were determined automatically using Brightfield Cell Counter DeNovix.

BsiEI = experiment: DNA restriction of pET28b(+) with BsiEI in albumin-containing buffer; type: biochemical; conditions: 0.1 mg/ml albumin, 60-80° C., 15 min
Protocol: Samples of pET28b(+) vector (1.5 μg) were restricted by BsiEI (10U, NEB) in 15 μl reaction volumes containing the Cutsmart buffer (NEB) or a reconstituted equivalent (50 mM Potassium acetate, 20 mM Tris-acetate, Mg-acetate, pH 7.9) supplemented with 0.lmg/ml of either commercial BSA (Sigma), HSA1, BSA2, or HSA3 variants (tagless, after gel filtration and ion exchange purification) at temperatures of 60-80° C. for 15 min using a gradient PCR (SensoQuest). Samples were then supplemented with 5 μl DNA sample buffer (150 mM TrisHCl pH 7.4, 5% SDS, 50% Glycerol, 0.05% Bromophenol Blue), heated (60° C., 10 min), and resolved on a 2% agarose-TAE gel containing 0.5 μg/mL Ethidium Bromide for 1.5h at 120V.

[2] = Thermal stability by differential scanning calorimetry (DSC); type: physicochemical
Protocol: as §1

[3] = Gel filtration (size exclusion) chromatography; type: physicochemical
Protocol: At the final stage, all the variants were purified by gel filtration chromatography, using HiLoad Superdex 200 column for preps coming from large scale expression (>500 ml culture) and HiLoad Superdex 75 column for preps coming from medium scale expression (50-500 ml culture).

[4] = Crystal structure of HSA1 with warfarin, bound myristate; type: binding; conditions: no myristate added
Protocol: Crystallization and structure determination of HSA1 and Warfarin. Tagless HSA1 protein obtained from SUMO-HSA production was concentrated to 100 mg/ml in Tris buffer pH 7.0 and supplemented with 1 mM warfarin from 100 mM stock in DMSO. Crystals of HSA1 and warfarin were obtained using the hanging-drop vapor diffusion method with a Mosquito robot (TTP LabTech). All datasets were collected under cryogenic conditions at the European Synchrotron Radiation Facility (ESRF), Grenoble, France at beamline ID30B. The crystals were grown from 0.05 M NaCl, 10% PEG 4000 and 0.05 Tris pH=8.0. The crystals formed in the space group P1, with two monomers per asymmetric unit and diffracted to 2.0 Å resolution. The integrated reflections were scaled using the AIMLESS program (20) from the CCP4i2 program suite (21). HSA1 structure determined by molecular replacement with PHASER (22) using the structure of human serum albumin in complex with aristolochic acid (PDB code 6HSC). All steps of atomic refinement were carried out with the CCP4i2/REFMAC5 program (23) and by PHENIX.refine (24). The models were built into 2 mFobs-DFcalc, and mFobs-DFcalc maps by using the COOT program (25). The model was optimized using PDB_REDO (25, 26) and was evaluated with MOLPROBITY (27). […] Details of the refinement statistics of HSA1 and Warfarin structure are described in Table 1.

Restriction performance, pET29b(+) digested with NcoI and XhoI (NcoI and XhoI enzymes)	Molecule	Melting temperature nanoDSF [1]	Effect on number of HEK293T cells (HEK293T cells)	Effect on viability of HEK293T cells (HEK293T cells)	Restriction performance, pET28b(+) digested with BsiEI (BsiEI)	Thermal stability [2]	Reversibility of thermal unfolding ([2]; heating and cooling)	Melting temperature (DSC) ([2]; heating at 1° C./min)	Oligomeric state by gel filtration [3]	Fatty-acid (myristate) binding [4]
performed equally well	B1	> 95 °C	no adverse effect	no adverse effect	performed equally well	stable beyond the boiling point	reversible temperature-dependent folding and unfolding	100.5 °C	–	–
performed equally well	B2	86 °C	no adverse effect	no adverse effect	performed equally well	–	–	–	completely monomeric	indistinguishable from the wild type; also recorded: four molecules of myristate fatty acid are present in the structure
